Reference: patent publication US9315544B2, “Method of treating eosinophilia by administering an immunomodulating peptide” (National Tsing Hua University, priority 2012, dated 2016)

Assays:
Type in all cases: cell-based
[1] = tested on: human CCL11; assay: CCL11 protein release from Beas-2B cells by ELISA; conditions: 37° C., 24 h
Description: FIG. 2 illustrates CCL11 expression in CMP and ECP co-treated Beas-2B cells. Beas-2B cells were starved with serum free medium for 24 h, followed by stimulation with ECP (column 2). Cells were stimulated with PBS as negative control (column 1) and ECP in the absence of CMP (column 2) or presence of 1 μM (column 3), 2.5 μM (column 4), 5 μM (column 5), 10 μM (column 6) CMP at 37° C. for 24 h. CCL11 protein level was determined by ELISA kit employing CCL11 antibody. The data represented mean±SD (standard deviation) of at least three independent experiments. ***, p<0.001; **, p<0.01
FIG. 3 illustrates CCL11 expression in CMP and IL-4 co-treated Beas-2B cells. Beas-2B cells were starved with serum free medium for 24 h, followed by stimulation with PBS (column 1) or 10 ng/mL IL-4 (column 2-7). Cells were stimulated with 10 ng/mL IL-4 in the absence […] or presence of 1 μM (column 3), 2.5 μM (column 4), 5 μM (column 5) and 10 μM (column 6) CMP at 37° C. for 24 h. CCL11 protein level was determined by ELISA kit employing CCL11 antibody. The data represented mean±SD (standard deviation) of at least three independent experiments. ***, p<0.001 (Stimulation with IL-4 compared with PBS treated Beas-2B cells). *, p<0.05 (Stimulation with indicated concentrations of CMP compared with IL-4 treated Beas-2B cells).
CCL11 ELISA kit (R&D) is an in vitro enzyme-linked immunosorbent assay for quantitative determination of human CCL11 concentration in cell culture supernatants. This assay employed an antibody specific for human CCL11 coated on a 96-well plate. The wells were incubated with 50 μL standard or sample for 2.5 hours at room temperature. After washing with 1× wash solution five times, 200 μL of CCL11 conjugate were added into each wells for 1 h. After washing, 100 μL TMB One-Step Substrate Reagent were added into each wells at room temperature for 30 minutes. 50 μL of Stop Solution were added into each wells and read at 450 nm by spectrophotometer immediately. Limit of detection in the assay was 5 pg/mL.
To investigate whether CMP influenced ECP-mediated CCL11 expression, Beas-2B cells were separately stimulated with 5 μM ECP in the absence of CMP and in the presence of 1 μM, 2.5 μM, 5 μM and 10 μM CMP at 37° C. for 24 h.
To further investigate whether CMP influenced CCL11 production from other stimulation in Beas-2B cells, serum-deprived Beas-2B cells were stimulated with 10 ng/mL IL-4, a dominant cytokine regulating CCL11, alone or in the presence of CMP at concentrations 1, 2.5, 5 and 10 μM at 37° C. for 24 h.

[2] = tested on: CCL26; assay: Cytokine mRNA expression analysis by quantitative real-time PCR (CCL26); conditions: 5 μM ECP, Beas-2B cells, 6 h, relative to mock-treated
Description: (§1) FIG. 1A-1B illustrates immunomodulatory effect of CMP on transcription of cytokine. Beas-2B cells were starved with serum free medium for 24 h, followed by stimulation with refold 5 μM ECP or 5 μM CMP or co-treatment with 5 μM ECP and 5 μM CMP at 37° C. for (A) 6 h and (B) 12 h, respectively. The mRNA quantities of CCL11, CCL24 and CCL26 were determined by real-time PCR. Beas-2B cells without protein treatment were used as control. […] The data represented at least three independent experiments and the error bar was shown as standard deviation (SD).
For inflammatory cytokine expression analysis, Beas-2B cells were stimulated with three different conditions: 1) 5 μM ECP, 2) 5 μM CMP and 3) co-incubated with 5 μM ECP and 5 μM CMP at 37° C. for 6 and 12 h. […] SYBR Green-based quantitative real-time PCR will be used to quantify the gene of interest, relative expression ratios of genes of interest were normalized to glyceraldehyde-3-phosphate dehydrogenase (GAPDH) transcripts. Changes in cytokine expression were measured by quantitative real-time PCR (qRT-PCR) employing the StepOne™ amplification and detection system (Life Technologies Corporation). […]
ECP, the best known marker protein of asthma, is involved in triggering cytokine expression in bronchial epithelial cells. […] Here variation of gene expression levels of chemokines including CCL11, CCL24 and CCL26 was analyzed.

[3] = tested on: CCL11; assay: Cytokine mRNA expression analysis by quantitative real-time PCR (CCL11); conditions: 5 μM ECP, Beas-2B cells, relative to mock-treated
Description: as §1
For inflammatory cytokine expression analysis, Beas-2B cells were stimulated with three different conditions: 1) 5 μM ECP, 2) 5 μM CMP and 3) co-incubated with 5 μM ECP and 5 μM CMP at 37° C. for 6 and 12 h. After incubation, total RNAs were extracted with RNA TRIzol reagent (Invitrogen, Inc) and reverse transcribed with MoMLV-reverse transcriptase (Promega, Madison, Wis.). SYBR Green-based quantitative real-time PCR will be used to quantify the gene of interest, relative expression ratios of genes of interest were normalized to glyceraldehyde-3-phosphate dehydrogenase (GAPDH) transcripts. Changes in cytokine expression were measured by quantitative real-time PCR (qRT-PCR) employing the StepOne™ amplification and detection system (Life Technologies Corporation). Data were analyzed by application of the StepOne™ quantification program software (version 2.22, Life Technologies Corporation) and expressed as means±S.D. Significance analysis was carried out by a two-sample unequal variance t-test with two-tailed distribution (post test). Significance was set as P<0.05.
ECP, the best known marker protein of asthma, is involved in triggering cytokine expression in bronchial epithelial cells. Real-time PCR analysis was carried out to quantify expression levels of indicated cytokines upon treatment with recombinant ECP in the presence and absence of CMP Bronchial epithelial Beas-2B cells were separately cultured in serum-free medium in the presence of 5 μM ECP, 5 μM CMP and both 5 μM ECP and 5 μM CMP for 6 and 12 h to monitor cytokine and chemokine gene modulation using real-time quantitative PCR. Untreated Beas-2B cells incubated at the same condition for 6 h and 12 h were used as negative controls. Here variation of gene expression levels of chemokines including CCL11, CCL24 and CCL26 was analyzed.

Molecule | CCL11 release ([1]; 5 μM ECP alone, Beas-2B cells) | CCL26 gene expression level increase [2] | CCL11 gene expression level increase ([3]; 6 h) | CCL11 gene expression level increase ([3]; 12 h) | CCL11 release ([1]; 10 ng/mL IL-4 alone, serum-deprived Beas-2B cells)
ECP: eosinophil cationic protein, recombinant; marker protein of asthma used as stimulus (protein, UniProt P12724 28-160, looked up) Eosinophil cationic protein: RPPQFTRAQWFAIQHISLNPPRCTIAMRAINNYRWRCKNQNTFLRTTFANVVNVCGNQSIRCPHNRTLNNCHRSRFRVPLLHCDLINPGAQNISNCTYADRPGRRFYVVACDNRDPRDSPRYPVVPVHLDTTI | 17.8 pg/mL | 2 fold | 9 fold | 2.8 fold | 
IL-4: a dominant cytokine regulating CCL11, used as stimulus (protein, UniProt P05112 25-153, looked up) Interleukin-4: HKCDITLQEIIKTLNSLTEQKTLCTELTVTDIFAASKNTTEKETFCRAATVLRQFYSHHEKDTRCLGATAQQFHRHKQLIRFLKRLDRNLWGLAGLNSCPVKEANQSTLENFLERLKTIMREKYSKCSS |  |  |  |  | 73.2 pg/mL
